This is an account of results in US20210332131A1 (TIGATX, published 2021).

In assay [1] the target is T1, CD47 (human, UniProt Q08722 19-323).
T1 construct: whole, on cells; also called Cluster of Differentiation 47; human CD47
Description: flow cytometry on SKBR3 WT cells (CD20-/CD47+), detection anti-IgA PE.
Description: (§1) After the pre-block the IgA antibodies were applied as described above. Samples were analyzed on a BD Canto II, and data has been analyzed using FlowJo (BD).

The next assay addresses T2, CD20 (UniProt P11836 1-297, limits assumed).
T2 construct: whole, on cells
T2 sequence (looked up): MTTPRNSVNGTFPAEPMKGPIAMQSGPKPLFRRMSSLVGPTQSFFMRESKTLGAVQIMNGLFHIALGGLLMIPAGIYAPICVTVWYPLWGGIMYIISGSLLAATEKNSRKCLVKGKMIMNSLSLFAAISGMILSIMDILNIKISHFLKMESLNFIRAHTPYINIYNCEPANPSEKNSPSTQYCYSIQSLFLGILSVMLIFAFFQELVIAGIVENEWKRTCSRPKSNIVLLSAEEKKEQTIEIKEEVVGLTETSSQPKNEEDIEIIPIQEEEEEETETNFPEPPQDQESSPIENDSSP
Description: flow cytometry, bispecific supernatant on SKBR3-CD20 cells, without or after pre-block of CD47 with m9, detection anti-IgA PE, GeoMFI; SKBR3 WT (CD20-) panel as comparison. On the technique in general: In flow cytometry, cells or beads pass a laser one at a time.

Assay [2] addresses T1, CD47. Description: flow cytometry, bispecific supernatant on SKBR3 WT (CD20-/CD47+) and SKBR3-CD20 cells, without or after pre-block of CD47 with mIgG1 anti-CD47 PerCP-Cy5.5, detection anti-IgA PE, GeoMFI.
Description: as §1
Cells were fixed and measured by FACS.
The target in assay [3] is T1, CD47. Kind of assay: flow cytometry on human erythrocytes (CD235a+), bispecific supernatant, detection anti-human IgA, % positive cells.
Description: A Histopaque/ficoll isolation was performed to separate the erythrocytes from the PMN/PBMC. Plasma, PBMC, ficoll, histopaque and PMN have been discarded. The remaining pellet of erythrocytes were washed in PBS, spun for 5 minutes at 2400 rpm and pellet was resuspended in 5 mL PBS. […] Dilutions are done in FACS buffer (1% BSA in PBS). Incubated for 30 minutes at RT in the dark, excess unbound antibody was washed away with FACS buffer. 40 uL was added in FACS buffer diluted detection antibody (goat F(ab)′2 anti-human IgA-FITC (Southern Biotech; dilution 1:100), incubated for 30 minutes at RT in the dark, excess unbound antibody was washed away with FACS buffer. Samples were fixed by adding 1% PFA to pelleted cells. Measure on Canto II (BD), gating on CD235-positive events.
In assay [4] the target is T1, CD47. Description: flow cytometry on SKBR3 WT cells (CD20-/CD47+), detection anti-IgA PE, GeoMFI.
Description: as §1

T1 sequence (Q08722 19-323): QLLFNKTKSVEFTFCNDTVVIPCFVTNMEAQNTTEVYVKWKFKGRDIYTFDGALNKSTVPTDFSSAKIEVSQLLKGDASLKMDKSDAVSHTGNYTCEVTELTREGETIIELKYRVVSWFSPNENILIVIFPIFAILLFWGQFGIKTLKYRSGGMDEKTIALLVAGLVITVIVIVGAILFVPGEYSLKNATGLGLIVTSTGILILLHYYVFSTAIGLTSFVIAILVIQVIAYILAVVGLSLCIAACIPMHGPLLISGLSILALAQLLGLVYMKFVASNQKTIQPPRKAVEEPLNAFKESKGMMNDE

B1: Obi-IgA3.0 (antibody, V domains shown)
VH: QVQLVQSGAEVKKPGSSVKVSCKASGYAFSYSWINWVRQAPGQGLEWMGRIFPGDGDTDYNGKFKGRVTITADKSTSTAYMELSSLRSEDTAVYYCARNVFDGYWLVYWGQGTLVTVSS
VL: DIVMTQTPLSLPVTPGEPASISCRSSKSLLHSNGITYLYWYLQKPGQSPQLLIYQMSNLVSGVPDRFSGSGSGTDFTLKISRVEAEDVGVYYCAQNLELPYTFGGGTKVEIKR
notes: Monospecific anti-CD20 IgA3.0 control; also called IgA3.0-Obi; anti-CD20 Obi antibody
As to B1, in the assay with CD47 [1], the binding result is “no binding (tested: 1 ug/mL (from paragraph 462, not on the sheet))”.

B2: DVD-IgA scFv_LC bispecific antibody #6 (Obi-scFv: 2.3D11_LC) (bispecific antibody)
heavy: QVQLQESGPGLVKPSGTLSLTCAVSGVSIRSINWWNWVRQPPGKGLEWIGEIYHSGSTNYNPSLKSRVTISVDKSKNQFSLKLNSVTAADTAVYYCARDGGIAVTDYYYYGLDVWGQGTTVTVSSASPTSPKVFPLSLDSTPQDGNVVVACLVQGFFPQEPLSVTWSESGQGVTARNFPPSQDASGDLYTTSSQLTLPATQCPDGKSVTCHVKHYTNPSQDVTVPCRVPPPPPCCHPRLSLHRPALEDLLLGSEANLTCTLTGLRDASGATFTWTPSSGKSAVQGPPERDLCGCYSVSSVLPGSAQPWNHGETFTCTAAHPELKTPLTATLSKSGNTFRPEVHLLPPPSEELALNELVTLTCLARGFSPKDVLVRWLQGSQELPREKYLTWASRQEPSQGTTTFAVTSILRVAAEDWKKGDTFSCMVGHEALPLAFTQKTIDRLAGK
light: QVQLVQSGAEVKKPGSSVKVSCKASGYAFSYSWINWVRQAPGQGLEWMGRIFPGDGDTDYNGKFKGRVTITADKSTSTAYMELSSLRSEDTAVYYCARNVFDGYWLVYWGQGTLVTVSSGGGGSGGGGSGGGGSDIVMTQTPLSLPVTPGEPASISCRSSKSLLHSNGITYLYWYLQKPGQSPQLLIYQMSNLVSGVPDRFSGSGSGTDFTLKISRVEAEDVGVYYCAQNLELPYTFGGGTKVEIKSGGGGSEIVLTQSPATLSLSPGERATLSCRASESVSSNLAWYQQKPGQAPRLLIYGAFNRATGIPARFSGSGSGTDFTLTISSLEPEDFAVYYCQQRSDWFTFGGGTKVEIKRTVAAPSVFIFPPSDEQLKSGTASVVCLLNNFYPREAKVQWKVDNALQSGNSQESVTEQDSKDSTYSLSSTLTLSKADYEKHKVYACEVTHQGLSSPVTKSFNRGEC
notes: Tetravalent homodimer; Obinituzumab (CD20) scFv on the 2.3D11 light chain; also called bispecific #6
For the molecule B2, the binding result in the assay with CD20 is “binds”.

B3: DVD-IgA scFv_LC bispecific antibody #5 (5A3M5-scFv: Obi_LC) (bispecific antibody)
heavy: QVQLVQSGAEVKKPGSSVKVSCKASGYAFSYSWINWVRQAPGQGLEWMGRIFPGDGDTDYNGKFKGRVTITADKSTSTAYMELSSLRSEDTAVYYCARNVFDGYWLVYWGQGTLVTVSSASPTSPKVFPLSLDSTPQDGNVVVACLVQGFFPQEPLSVTWSESGQGVTARNFPPSQDASGDLYTTSSQLTLPATQCPDGKSVTCHVKHYTNPSQDVTVPCRVPPPPPCCHPRLSLHRPALEDLLLGSEANLTCTLTGLRDASGATFTWTPSSGKSAVQGPPERDLCGCYSVSSVLPGSAQPWNHGETFTCTAAHPELKTPLTATLSKSGNTFRPEVHLLPPPSEELALNELVTLTCLARGFSPKDVLVRWLQGSQELPREKYLTWASRQEPSQGTTTFAVTSILRVAAEDWKKGDTFSCMVGHEALPLAFTQKTIDRLAGK
light: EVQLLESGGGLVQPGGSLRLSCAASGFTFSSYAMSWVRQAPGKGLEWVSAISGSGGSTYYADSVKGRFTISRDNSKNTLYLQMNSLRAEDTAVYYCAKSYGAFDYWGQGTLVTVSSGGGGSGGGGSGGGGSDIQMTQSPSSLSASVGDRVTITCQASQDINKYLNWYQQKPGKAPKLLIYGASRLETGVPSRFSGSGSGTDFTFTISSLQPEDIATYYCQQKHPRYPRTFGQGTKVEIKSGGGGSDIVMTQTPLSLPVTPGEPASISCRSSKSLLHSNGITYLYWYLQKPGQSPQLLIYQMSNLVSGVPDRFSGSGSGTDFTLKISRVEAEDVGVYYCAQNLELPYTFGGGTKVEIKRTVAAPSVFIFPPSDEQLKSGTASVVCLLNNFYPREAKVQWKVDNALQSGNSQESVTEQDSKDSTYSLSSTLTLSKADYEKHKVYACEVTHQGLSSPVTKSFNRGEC
notes: Tetravalent homodimer; 5A3M5 (CD47) scFv on the Obinituzumab light chain
For B3, the binding result with CD20 is on record as “binds”.

B4: DVD-IgA bispecific antibody #1 (5A3M5-Obi) (bispecific antibody)
heavy: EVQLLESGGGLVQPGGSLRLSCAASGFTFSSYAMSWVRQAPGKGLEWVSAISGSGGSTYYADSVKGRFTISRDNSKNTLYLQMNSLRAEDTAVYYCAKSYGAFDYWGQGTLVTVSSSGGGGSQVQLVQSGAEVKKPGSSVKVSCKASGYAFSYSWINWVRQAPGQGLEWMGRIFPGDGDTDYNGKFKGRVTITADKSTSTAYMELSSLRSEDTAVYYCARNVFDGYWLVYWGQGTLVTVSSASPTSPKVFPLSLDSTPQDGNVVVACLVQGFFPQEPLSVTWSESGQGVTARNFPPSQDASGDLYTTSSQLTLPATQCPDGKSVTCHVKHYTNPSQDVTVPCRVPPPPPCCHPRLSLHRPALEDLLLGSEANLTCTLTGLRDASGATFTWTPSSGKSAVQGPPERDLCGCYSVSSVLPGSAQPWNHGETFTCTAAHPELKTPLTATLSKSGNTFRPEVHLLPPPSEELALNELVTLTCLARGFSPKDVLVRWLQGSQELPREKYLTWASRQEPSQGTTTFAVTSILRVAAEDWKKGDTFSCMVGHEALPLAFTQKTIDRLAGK
light: DIQMTQSPSSLSASVGDRVTITCQASQDINKYLNWYQQKPGKAPKLLIYGASRLETGVPSRFSGSGSGTDFTFTISSLQPEDIATYYCQQKHPRYPRTFGQGTKVEIKSGGGGSDIVMTQTPLSLPVTPGEPASISCRSSKSLLHSNGITYLYWYLQKPGQSPQLLIYQMSNLVSGVPDRFSGSGSGTDFTLKISRVEAEDVGVYYCAQNLELPYTFGGGTKVEIKRTVAAPSVFIFPPSDEQLKSGTASVVCLLNNFYPREAKVQWKVDNALQSGNSQESVTEQDSKDSTYSLSSTLTLSKADYEKHKVYACEVTHQGLSSPVTKSFNRGEC
notes: Tetravalent homodimer, outer domain CD47 (5A3M5), inner domain CD20 (Obinituzumab)
Regarding B4, the binding result with CD47 [2] is reported as “no binding”; with CD20, “binds”.

B5: DVD-IgA scFv_HC bispecific antibody #4 (Obi-scFv: 2.3D11_HC) (bispecific antibody)
heavy: QVQLVQSGAEVKKPGSSVKVSCKASGYAFSYSWINWVRQAPGQGLEWMGRIFPGDGDTDYNGKFKGRVTITADKSTSTAYMELSSLRSEDTAVYYCARNVFDGYWLVYWGQGTLVTVSSGGGGSGGGGSGGGGSDIVMTQTPLSLPVTPGEPASISCRSSKSLLHSNGITYLYWYLQKPGQSPQLLIYQMSNLVSGVPDRFSGSGSGTDFTLKISRVEAEDVGVYYCAQNLELPYTFGGGTKVEIKSGGGGSQVQLQESGPGLVKPSGTLSLTCAVSGVSIRSINWWNWVRQPPGKGLEWIGEIYHSGSTNYNPSLKSRVTISVDKSKNQFSLKLNSVTAADTAVYYCARDGGIAVTDYYYYGLDVWGQGTTVTVSSASPTSPKVFPLSLDSTPQDGNVVVACLVQGFFPQEPLSVTWSESGQGVTARNFPPSQDASGDLYTTSSQLTLPATQCPDGKSVTCHVKHYTNPSQDVTVPCRVPPPPPCCHPRLSLHRPALEDLLLGSEANLTCTLTGLRDASGATFTWTPSSGKSAVQGPPERDLCGCYSVSSVLPGSAQPWNHGETFTCTAAHPELKTPLTATLSKSGNTFRPEVHLLPPPSEELALNELVTLTCLARGFSPKDVLVRWLQGSQELPREKYLTWASRQEPSQGTTTFAVTSILRVAAEDWKKGDTFSCMVGHEALPLAFTQKTIDRLAGK
light: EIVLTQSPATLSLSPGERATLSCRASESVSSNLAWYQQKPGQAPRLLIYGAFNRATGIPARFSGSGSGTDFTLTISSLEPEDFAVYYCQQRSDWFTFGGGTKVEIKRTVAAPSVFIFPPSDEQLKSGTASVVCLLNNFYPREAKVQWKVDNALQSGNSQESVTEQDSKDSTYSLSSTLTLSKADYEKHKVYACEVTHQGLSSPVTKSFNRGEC
notes: Tetravalent homodimer; Obinituzumab (CD20) scFv on the 2.3D11 heavy chain; Tested as raw HEK293F supernatant; also called bispecific #4
B5: the binding result with CD47 [3] and with CD20 was “binds” each time.

B6: DVD-IgA bispecific antibody #2 (Obi-2.3D11) (bispecific antibody)
heavy: QVQLVQSGAEVKKPGSSVKVSCKASGYAFSYSWINWVRQAPGQGLEWMGRIFPGDGDTDYNGKFKGRVTITADKSTSTAYMELSSLRSEDTAVYYCARNVFDGYWLVYWGQGTLVTVSSSGGGGSQVQLQESGPGLVKPSGTLSLTCAVSGVSIRSINWWNWVRQPPGKGLEWIGEIYHSGSTNYNPSLKSRVTISVDKSKNQFSLKLNSVTAADTAVYYCARDGGIAVTDYYYYGLDVWGQGTTVTVSSASPTSPKVFPLSLDSTPQDGNVVVACLVQGFFPQEPLSVTWSESGQGVTARNFPPSQDASGDLYTTSSQLTLPATQCPDGKSVTCHVKHYTNPSQDVTVPCRVPPPPPCCHPRLSLHRPALEDLLLGSEANLTCTLTGLRDASGATFTWTPSSGKSAVQGPPERDLCGCYSVSSVLPGSAQPWNHGETFTCTAAHPELKTPLTATLSKSGNTFRPEVHLLPPPSEELALNELVTLTCLARGFSPKDVLVRWLQGSQELPREKYLTWASRQEPSQGTTTFAVTSILRVAAEDWKKGDTFSCMVGHEALPLAFTQKTIDRLAGK
light: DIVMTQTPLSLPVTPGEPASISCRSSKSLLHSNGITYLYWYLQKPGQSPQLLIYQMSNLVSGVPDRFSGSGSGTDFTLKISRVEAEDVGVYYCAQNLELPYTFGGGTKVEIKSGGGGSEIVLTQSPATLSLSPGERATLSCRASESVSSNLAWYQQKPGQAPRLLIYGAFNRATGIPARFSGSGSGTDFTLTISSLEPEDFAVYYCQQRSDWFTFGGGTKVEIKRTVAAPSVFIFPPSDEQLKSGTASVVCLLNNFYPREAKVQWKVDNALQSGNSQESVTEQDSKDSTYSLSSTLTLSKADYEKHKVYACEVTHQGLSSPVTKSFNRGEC
notes: Tetravalent homodimer, outer domain CD20 (Obinituzumab), inner domain CD47 (2.3D11); also called DVD-IgA Obi-2.3D11
Regarding B6, the binding result with CD20 is given as “binds”.

B7: DVD-IgA scFv_HC bispecific antibody #3 (5A3M5-scFv: Obi_HC) (bispecific antibody)
heavy: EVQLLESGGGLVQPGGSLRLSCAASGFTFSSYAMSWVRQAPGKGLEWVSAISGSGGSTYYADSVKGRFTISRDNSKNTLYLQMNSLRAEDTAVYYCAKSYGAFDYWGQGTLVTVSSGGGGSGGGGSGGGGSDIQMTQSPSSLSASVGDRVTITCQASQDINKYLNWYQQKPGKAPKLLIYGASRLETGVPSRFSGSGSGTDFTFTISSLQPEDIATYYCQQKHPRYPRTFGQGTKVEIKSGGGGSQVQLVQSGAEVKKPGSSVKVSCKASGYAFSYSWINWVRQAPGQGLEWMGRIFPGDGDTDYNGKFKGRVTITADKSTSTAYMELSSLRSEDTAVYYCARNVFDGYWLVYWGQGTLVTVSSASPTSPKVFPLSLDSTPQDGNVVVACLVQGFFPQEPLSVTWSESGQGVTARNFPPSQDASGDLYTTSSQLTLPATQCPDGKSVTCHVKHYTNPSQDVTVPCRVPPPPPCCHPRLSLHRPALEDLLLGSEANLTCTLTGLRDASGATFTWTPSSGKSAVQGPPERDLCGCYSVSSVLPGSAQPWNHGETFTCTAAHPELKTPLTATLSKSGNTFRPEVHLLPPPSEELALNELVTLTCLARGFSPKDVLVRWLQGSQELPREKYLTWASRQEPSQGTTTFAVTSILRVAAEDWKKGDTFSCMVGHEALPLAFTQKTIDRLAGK
light: DIVMTQTPLSLPVTPGEPASISCRSSKSLLHSNGITYLYWYLQKPGQSPQLLIYQMSNLVSGVPDRFSGSGSGTDFTLKISRVEAEDVGVYYCAQNLELPYTFGGGTKVEIKRTVAAPSVFIFPPSDEQLKSGTASVVCLLNNFYPREAKVQWKVDNALQSGNSQESVTEQDSKDSTYSLSSTLTLSKADYEKHKVYACEVTHQGLSSPVTKSFNRGEC
notes: Tetravalent homodimer; 5A3M5 (CD47) scFv on the Obinituzumab heavy chain; Tested as raw HEK293F supernatant
Take B7: in the assay with CD20, the binding result is reported as “binds”.

B8: 2.3D11-IgA2 (antibody, V domains shown)
VH: QVQLQESGPGLVKPSGTLSLTCAVSGVSIRSINWWNWVRQPPGKGLEWIGEIYHSGSTNYNPSLKSRVTISVDKSKNQFSLKLNSVTAADTAVYYCARDGGIAVTDYYYYGLDVWGQGTTVTVSS
VL: EIVLTQSPATLSLSPGERATLSCRASESVSSNLAWYQQKPGQAPRLLIYGAFNRATGIPARFSGSGSGTDFTLTISSLEPEDFAVYYCQQRSDWFTFGGGTKVEIK
notes: May be the same as IgA3.0-2.3D11; also called bivalent monospecific antibody 2.3D11; anti-CD47 antibody 2.3D11
For the molecule B8, the binding result with CD47 [4] was “binds”.
